One assay concerns the target human CCR5 (human, UniProt P51681 1-352). The assay is described as follows: cell-based or functional assay.
The next assay concerns the target human CD4 (human, UniProt P01730 26-458). The assay is described as follows: cell-based or functional assay.

The record followed here is WO2010028796A1 (dated 2010).

Chain of human CCR5 (P51681 whole entry): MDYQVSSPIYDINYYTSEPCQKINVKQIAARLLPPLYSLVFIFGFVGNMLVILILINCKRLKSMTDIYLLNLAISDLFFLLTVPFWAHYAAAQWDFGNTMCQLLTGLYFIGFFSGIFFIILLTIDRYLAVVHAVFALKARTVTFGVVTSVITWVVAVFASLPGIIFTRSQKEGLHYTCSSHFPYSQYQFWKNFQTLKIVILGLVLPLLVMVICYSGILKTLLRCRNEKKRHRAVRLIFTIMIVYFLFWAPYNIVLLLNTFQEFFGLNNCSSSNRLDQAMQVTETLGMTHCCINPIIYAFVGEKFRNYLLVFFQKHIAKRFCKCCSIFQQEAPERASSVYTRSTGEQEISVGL

B1: BNN-1000-1000 (antibody, human IgG1, kappa, L234A L235A, V domains shown)
VH: QVQLQESGPGLVKPSQSLSITCTVSGFPLGAFGVHWVRQSPGKGLEWLGVIWKGGNTDYNAAFKSRLRITKDNSKSQVFFRMNSLQTDDTATYYCAKVNLADAMDYWGQGTTVTVSS
VL: DIQMTQSPASLSASVGETVTITCRASGNAHGYLAWYQQKPGKAPKLLIYNTKTLAEGVPSRFSGSGSGTQFSLKINSAQPEDFGNYYCQHHYDLPRTFGGGTKVEIKR
As to B1, the “IC50, PBMC antiviral assay (HIV-1 NLBal, p24 ELISA)” value with human CCR5 came to 1080 pM.

B2: HNN-1000-1000 (antibody, V domains shown)
VH: QVQLQQSGPEVVKPGASVKMSCKASGYTFTSYVIHWVRQKPGQGLDWIGYINPYNDGTDYDEKFKGKATLTSDTSTSTAYMELSSLRSEDTAVYYCAREKDNYATGAWFAYWGQGTLVTVSS
VL: DIVMTQSPDSLAVSLGERVTMNCKSSQSLLYSTNQKNYLAWYQQKPGQSPKLLIYWASTRESGVPDRFSGSGSGTDFTLTISSVQAEDVAVYYCQQYYSYRTFGGGTKLEIK
Consider B2, for which the “IC50, PBMC antiviral assay (HIV-1 NLBal, p24 ELISA)” value in the assay with human CD4 is 348 pM.
